Measurements as given in patent publication US20150284477.
Numbering of substitutions follows the chain as printed. Names may count otherwise.

Key:
[1] = target: T1, GGG-COOH
T1 chain: GGG

[2] = target: T2, LPETG (SEQ ID NO: 4) substrate (not fully specified)
T2 chain: LPETG

[3] = target: LPESG motif-bearing substrate
[4] = target: T3, LAETG motif-bearing substrate (not fully specified)
T3 chain: LAETG

B1: P94S/D160N/K196T (protein)
chain: MQAKPQIPKDKSKVAGYIEIPDADIKEPVYPGPATSEQLNRGVSFAEENESLDDQNISIAGHTFIDRPNYQFTNLKAAKKGSMVYFKVGNETRKYKMTSIRNVKPTDVEVLDEQKGKDKQLTLITCDDYNEKTGVWETRKIFVATEVKLEHHHHHH
- Km GGG-COOH [1]: 1830 ± 330 µM
- Km LPETG [2]: 0.56 mM

B2: P94S/D160N/D165A (protein)
chain: B1 chain with D107A, T138K
- Km GGG-COOH [1]: 1750 ± 250 µM
- Km LPETG [2]: 0.51 mM

B3: P94R/D160N/D165A/K190E/K196T pentamutant sortase A (protein)
chain: B1 chain with S36R, D107A, K132E
- Km GGG against the tetramutant [1]: the Km GGG of this mutant improved by 1.8-fold
- Km GGG against wild type srtA [1]: a 20-fold higher Km GGG
- Km GGG-COOH [1]: 2900 ± 200 µM
- Km, GGG (uM); column 5mut/wt [1]: 2990 µM
- Km, LxExG (uM); column 5mut/4S [3]: 672 µM
- Km, LxExG (uM); column 5mut/2A [4]: 6160 µM
- KM LPETG against the tetramutant [2]: the kcat and KM LPETG were not altered by more than a factor of 1.3-fold
- Km LPETG [2]: 0.23 mM
- Km, LxExG (uM); column 5mut/wt [2]: 208 µM

B4: srtA P94S (protein)
chain: B1 chain with N102D, T138K
- Km GGG-COOH [1]: 650 µM
- Km LPETG [2]: 2.5 mM

B5: srtA D160N (protein)
chain: B1 chain with S36P, T138K
- Km GGG-COOH [1]: 330 µM
- Km LPETG [2]: 3.7 mM

B6: srtA D165A (protein)
chain: B1 chain with S36P, N102D, D107A, T138K
- Km GGG-COOH [1]: 1000 ± 480 µM
- Km LPETG [2]: 3.6 mM

B7: wild type S. aureus sortase A (truncated, His tagged) (protein)
chain: B1 chain with S36P, N102D, T138K
- Km GGG-COOH [1]: 140 µM
- Km, GGG (uM); column wt/wt [1]: 291 µM
- Km LPETG [2]: 7.6 mM
- Km, LxExG (uM); column wt/wt [2]: 5180 µM

B8: srtA K196T (protein)
chain: B1 chain with S36P, N102D
- Km GGG-COOH [1]: 200 µM
- Km LPETG [2]: 3.3 mM

B9: P94S/D160N/D165A/K196T (protein)
chain: B1 chain with D107A
- Km GGG-COOH [1]: 4800 ± 700 µM
- Km LPETG [2]: 0.17 mM
- LPETG recognition (Km LPETG) against wild type SrtA [2]: 45-fold improved LPETG (SEQ ID NO: 4) recognition

B10: sortase 2A.3.5 (protein)
chain: QAKPQIPKDKSKVAGYIEIPDADIKEPVYPGPATREQLNRGVSFAEENESLDDQNISIAGHTFIDRPNYQFTNLKAAKKGSMVYFKVGNETRKYKMTSIRNVRPTAVEILDEQKGKDKQLTLFTCDDYNEETGVWETRKIFVATEVK
- Km, LxExG (uM); column 2A.3.5/2A [4]: 7160 µM
- Km, LxExG (uM); column 2A.3.5/wt [2]: 4110 µM

B11: sortase 2A.4 (protein)
chain: B10 chain with A45H, F123V
- Km, LxExG (uM); column 2A.4/2A [4]: 3250 µM
- Km, LxExG (uM); column 2A.4/wt [2]: 11700 µM

B12: sortase 2A.5 (protein)
chain: B10 chain with R40H, A45H, K79I, I109V, F123V
- Km, GGG (uM); column 2A.5/2A [1]: 2810 µM
- Km, LxExG (uM); column 2A.5/2A [4]: 433 µM
- Km, LxExG (uM); column 2A.5/wt [2]: 4900 µM

B13: sortase 2A.6A (protein)
chain: B10 chain with A45H, K79V, I109V, F123V
- Km, GGG (uM); column 2A.6A/2A [1]: 1040 µM
- Km, LxExG (uM); column 2A.6A/2A [4]: 608 µM
- Km, LxExG (uM); column 2A.6A/wt [2]: 3290 µM

B14: D160N/K190E/K196T (clone 4.2) (protein)
chain: B1 chain with S36P, K132E
- Km GGG-COOH [1]: 1200 ± 200 µM
- Km LPETG [2]: 1.6 mM

B15: sortase 2A.6B (protein)
chain: B10 chain with R40K, A45H, K79V, N101K, I109V, F123V
- Km, GGG (uM); column 2A.6B/2A [1]: 642 µM
- Km, LxExG (uM); column 2A.6B/2A [4]: 310 µM

B16: sortase 2A.6C (protein)
chain: B10 chain with A45H, K79P, K93I, N101K, I109V, F123V
- Km, GGG (uM); column 2A.6C/2A [1]: 642 µM
- Km, LxExG (uM); column 2A.6C/2A [4]: 343 µM
- Km, LxExG (uM); column 2A.6C/wt [2]: 1980 µM

B17: sortase 4S.3.5 (protein)
chain: B10 chain with A45T, A59T, R103K, I109V, F123V
- Km, LxExG (uM); column 4S.3.5/4S [3]: 7310 µM

B18: sortase 4S.4 (protein)
chain: B10 chain with A45V, A59T, F63S, R103K, I109V, F123V
- Km, LxExG (uM); column 4S.4/4S [3]: 1410 µM
- Km, LxExG (uM); column 4S.4/wt [2]: 339 µM

B19: sortase 4S.5 (protein)
chain: B10 chain with N39D, A45V, A59T, F63A, K75R, R103K, I109V, F123V
- Km, GGG (uM); column 4S.5/4S [1]: 26700 µM
- Km, LxExG (uM); column 4S.5/4S [3]: 76 µM
- Km, LxExG (uM); column 4S.5/wt [2]: 12.2 µM

B20: sortase 4S.6A (protein)
chain: B10 chain with N39D, A45V, A59T, F63A, K75G, R103K, I109V, F123V, E130V
- Km, GGG (uM); column 4S.6A/4S [1]: 4950 µM
- Km, LxExG (uM); column 4S.6A/4S [3]: 102 µM
- Km, LxExG (uM); column 4S.6A/wt [2]: 1290 µM

B21: sortase 4S.6B (protein)
chain: B10 chain with N39D, A45V, A59S, F63A, K75P, R103K, I109V, F123V, E130P
- Km, GGG (uM); column 4S.6B/4S [1]: 15700 µM
- Km, LxExG (uM); column 4S.6B/4S [3]: 312 µM
- Km, LxExG (uM); column 4S.6B/wt [2]: 238 µM

B22: sortase 4S.6C (protein)
chain: B10 chain with N39D, A45V, A59T, F63A, K75R, R103K, I109V, F123V, E130F
- Km, GGG (uM); column 4S.6C/4S [1]: 36000 µM
- Km, LxExG (uM); column 4S.6C/4S [3]: 156 µM
- Km, LxExG (uM); column 4S.6C/wt [2]: 16.1 µM

B23: P94S/D165A (clone 4.3) (protein)
chain: B1 chain with N102D, D107A, T138K
- Km GGG-COOH [1]: 1700 ± 400 µM
- Km LPETG [2]: 1.1 mM
